“Also recorded” adds a separate entry of the source.
B1: N-terminal domain peptide of CD95: N-terminal domain of human CD95, aa 1-209 (protein, listed as Homo sapiens)
chain: MLGIWTLLPLVLTSVARLSSKSVNAQVTDINSKGLELRKTVTTVETQNLEGLHHDGQFCHKPCPPGERKARDCTVNGDEPDCVPCQEGKEYTDKAHFSSKCRRCRLCDEGHGLEVEINCTRTQNTKCRCKPNFFCNSTVCEHCDPCTKCEHGIIKECTLTSNTKCKEEGSRSNLGWLCLLLLPIPLIVWVKRKEVQKTCRKHRKENQGS
B2: C2: hCD95 C-terminal peptide aa 212-331, mimics ELANE cleavage at site 2 (protein)
chain: SPTLNPETVAINLSDVDLSKYITTIAGVMTLSQVKGFVRKNGVNEAKIDEIKNDNVQDTAEQKVQLLRNWHQLHGKKEAYDTLIKDLKKANLCTLAEKIQTIILKDITSDSENSNFRNEI
B3: murine ELANE: recombinant mouse ELANE activated with CTSC (protein, UniProt Q3UP87 27-265, looked up)
Neutrophil elastase: SEIVGGRPARPHAWPFMASLQRRGGHFCGATLIARNFVMSAAHCVNGLNFRSVQVVLGAHDLRRQERTRQTFSVQRIFENGFDPSQLLNDIVIIQLNGSATINANVQVAQLPAQGQGVGDRTPCLAMGWGRLGTNRPSPSVLQELNVTVVTNMCRRRVNVCTLVPRRQAGICFGDSGGPLVCNNLVQGIDSFIRGGCGSGLYPDAFAPVAEFADWINSIIRSHNDHLLTHPKDREGRTN
B4: full-length CD95: full length human CD95 (aa 1-335), isoform 1 (protein, listed as Homo sapiens)
chain: MLGIWTLLPLVLTSVARLSSKSVNAQVTDINSKGLELRKTVTTVETQNLEGLHHDGQFCHKPCPPGERKARDCTVNGDEPDCVPCQEGKEYTDKAHFSSKCRRCRLCDEGHGLEVEINCTRTQNTKCRCKPNFFCNSTVCEHCDPCTKCEHGIIKECTLTSNTKCKEEGSRSNLGWLCLLLLPIPLIVWVKRKEVQKTCRKHRKENQGSHESPTLNPETVAINLSDVDLSKYITTIAGVMTLSQVKGFVRKNGVNEAKIDEIKNDNVQDTAEQKVQLLRNWHQLHGKKEAYDTLIKDLKKANLCTLAEKIQTIILKDITSDSENSNFRNEIQSLV
B5: mouse CD95 (mCD95): mouse CD95 overexpressed in cancer cells (protein, UniProt P25446 22-327, looked up)
Tumor necrosis factor …: QGTNSISESLKLRRRVRETDKNCSEGLYQGGPFCCQPCQPGKKKVEDCKMNGGTPTCAPCTEGKEYMDKNHYADKCRRCTLCDEEHGLEVETNCTLTQNTKCKCKPDFYCDSPGCEHCVRCASCEHGTLEPCTATSNTNCRKQSPRNRLWLLTILVLLIPLVFIYRKYRKRKCWKRRQDDPESRTSSRETIPMNASNLSLSKYIPRIAEDMTIQEAKKFARENNIKEGKIDEIMHDSIQDTAEQKVQLLLCWYQSHGKSDAYQDLIKGLKKAECRRTLDKFQDMVQKDLGKSTPDTGNENEGQCLE
B6: Cl: hCD95 C-terminal peptide aa 221-335, mimics ELANE cleavage at site 1 (protein)
chain: AINLSDVDLSKYITTIAGVMTLSQVKGFVRKNGVNEAKIDEIKNDNVQDTAEQKVQLLRNWHQLHGKKEAYDTLIKDLKKANLCTLAEKIQTIILKDITSDSENSNFRNEIQSLV

Key:
[1] = test system: human/murine cancer cells; test: In vitro cell viability of cancer cells (calcein-AM, CASP3, ANXA5); type: cell-based; conditions: for effect of ELANE inhibitor treatment of ELANE or PMN media on cancer cell killing: PMSF 1 mM or A1AT 42 nM
Excerpt: Cell lines. The ovarian cancer cell lines—CAOV3, OVCAR3, OVCAR4, OVCAR5, A2780, A2780/CP70, HeyA8, TykNu, SKOV3, ID8, and ID8p53-/- were a gift from Dr. Ernst Lengyel, University of Chicago. The breast cancer cell lines—MDA-MB-231, MDA-MB-231.BM1, MCF-7, M6C, E0771, and E0771.LMB were a gift from Dr. Marsha Rosner, University of Chicago. The colon carcinoma cell line RKO, glioblastoma cancer cell line T98G, osteosarcoma cell lines U-2OS and Saos-2, and the hepatocellular carcinoma cell line HepG2 were a gift from Dr. Kay McLeod, University of Chicago. The lung cancer cell line NCI-H552 was a gift from Dr. Stephanie Huang, University of Chicago, and A549 and LLC1 cells were purchased from ATTC. The melanoma cell lines—B16F10, Mel888, Mel1106, and SK-MEL-28 cells were a gift from Dr. Thomas Gajewski, University of Chicago. The pancreatic cancer cell line PANC1 was a gift from Dr. Yamuna Krishnan, University of Chicago. The leukemia cell line K562 was a gift from Dr. Amittha Wickrema, University of Chicago.
The prostate cancer cell lines—CWR22Rv1, LAPC4, and LNCaP were a gift from Dr. Donald Vander Griend, University of Chicago. The neuroblastoma cell lines—SK-N-BE(2) and NBL-WN cells were a gift from Dr. Lucy Godley, University of Chicago.
Neutrophil media collections. Freshly isolated human or murine neutrophils were plated in serum-free DMEM for 24 h. Conditioned media was collected, spun at 500×g for 5 min, and media protein levels were determined with a Bradford assay (Biorad).
PMN media manipulations. For boiling, PMN media was boiled at 95° C. for 5 min and spun at 15,000×g for 10 min to remove precipitated proteins. For dialysis, PMN media was placed into a Slide-a-Lyzer™ cassette (3.5 kDa cutoff, ThermoFisher Scientific) and dialyzed against 2×4L of PBS at 4° C. for 4 h. For PMSF-inactivation, PMN media was treated with PMSF (1 mM, Sigma) or A1AT (42 nM, Athens Research & Technology) and incubated at room temperature for up to 2 h. Residual PMSF was eliminated with a PD-10 desalting column (GE Healthcare Life). Inhibition of ELANE catalytic activity was confirmed using a chromogenic substrate activity assay (see below). For serum-spiking experiments, human, mouse, or fetal bovine serum (1% or 10%) was added to PMN media prior to or after exposing cancer cells. For immune-depletion studies, ELANE or ECP were immunoprecipitated using anti-ELANE (N2C3, GeneTx) or anti-ECP (MB S2535165, MyBioSource) coupled to Pierce™ Protein A/G Magnetic Beads (ThermoFisher Scientific).
(§1) In vitro cell viability assays. […] Luminescence was measured using a Victor X3 luminometer (PerkinElmer).

cancer cells = test: CD95 protein overexpression in cancer cells, viability in absence of ELANE (calcein-AM); type: cell-based, human; conditions: transient overexpression
Method: FIGS. 1A-1K. ELANE cleaves CD95 to selectively kill cancer cells. (A): Heatmap summary of ELANE's effects on survival, stress, and apoptosis pathways in cancer cells and healthy cells. (B-C): Cancer cells were treated with ELANE (100 nM) and CD95 cleavage was assessed by western blotting using anti-N-terminal (B) or anti-C-terminal antibodies (C). *, lower molecular weight CD95 fragment. (D): Cancer cells or non-cancer cells were transduced to overexpress CD95 proteins, and effects on ELANE-mediated apoptosis were quantified by ANXAS at 30 min. n=2/group. See FIG. 1I for transduction and CD95 over-expression. (E): Cleavage of recombinant human CD95 N-terminal (aa 1-173) or C-terminal (aa 212-335) proteins by ELANE was assessed by SDS-PAGE and Coomassie blue staining. (F): Bands from (E) were digested with trypsin and analyzed by mass spectrometry to identify putative ELANE cleavage sites (i.e., peptides with non-tryptic ends). Major non-tryptic peptides were quantified by ion chromatograms. (G): Schematic of ELANE cleavage sites in CD95. […] (H): Cleavage of recombinant peptides corresponding to aa 214-231 and aa 317-335 in CD95 by ELANE was monitored by mass spectrometry. (I): Cancer cells or non-cancer cells were treated with fluorescein-labeled ELANE for 10 min and uptake was visualized by immunofluorescence. (J): ELANE catalytic activity in cancer cell lysates following exposure to ELANE for 30 mins in the presence and absence of Dynasore (60 μM endocytosis inhibitor). Effect of Dynasore on cancer cell killing capability of ELANE (measured by calcein-AM). n=6/group. (K): Cancer cells or non-cancer cells were transduced to overexpress various CD95 proteins, and cell viability in the absence of ELANE was determined by calcein-AM. n=10/group. *, p<0.05 Student's t-test.
as §1
(§2) CD95 overexpression studies. Polycistronic adenoviral vectors were prepared to express the human and mouse CD95 sequences followed by the Encephalomyocarditis virus (EMCV) internal ribosome entry site and dTomato sequence under the control of the cytomegalovirus (CMV) promoter (VectorBuilder). Human and murine cancer cells or normal or non-cancer cells were transduced to over-express full-length CD95, N-terminal CD95 (human: aa 1-209; mouse: aa 1-204), C-terminal CD95 (human: aa 212-335; mouse: aa 204-327), or C-terminal CD95 that mimicked ELANE cleavage at site 1 (human: aa 221-335), site 2 (human: aa 212-331), or both sites (aa 221-331). Cancer cells or normal or non-cancer cells were transduced with adenoviruses at an MOI of 50-250 depending on cell type, and expression of dTomato and CD95 (human: 558814; mouse, mouse: 565130, BD Biosciences) were confirmed by flow cytometry. A vector encoding GFP (Vector Builders) was used as a control.

[2] = test system: human and murine cancer cells; test: CD95 overexpression, ELANE-mediated apoptosis (ANXA5); type: cell-based; conditions: ELANE 40 nM, ANXA5 at 30 min
Method: FIGS. 2A-2D Overexpressing CD95 proteins accelerates cancer cell killing by ELANE. Polycistronic adenoviral vectors were prepared to express the human and mouse CD95 sequences followed by the Encephalomyocarditis virus (EMCV) internal ribosome entry site and dTomato sequence under the control of the cytomegalovirus (CMV) promoter. Human and murine cancer cells or non-cancer cells were transduced to over-express full-length CD95, N-terminal CD95 (human: aa 1-209; mouse: aa 1-204), or C-terminal CD95 (human: aa 212-335; mouse: aa 204-327). (A): Transduction efficiency quantified by dTomato (Left). CD95 levels in dTomato− and dTomato+ cells quantified by geometric mean (MFI) (Middle). ANXA5 levels in dTomato− and dTomato+ cells 30 min after treatment with ELANE (40 nM) (Right). Representative data for A549 cells are shown. (B-C): Quantification of transduction efficiency (B) and relative CD95 overexpression (C) for cancer cells and non-cancer cells. (D): Quantification of ANXA5 levels following ELANE treatment (40 nM, 30 min) for mouse cancer cell lines (E0771, B16F10). *, p<0.05 Student's t-test.
as §1, §2

| Molecule | cancer cell death/toxicity on expression in the absence of ELANE (cancer cells) | effect of overexpression on ELANE-mediated killing [2] | other results |
| --- | --- | --- | --- |
| O=S(=O)(F)Cc1ccccc1 [PMSF] | – | – | effect of ELANE inhibitor treatment of ELANE or PMN media on cancer cell killing [1]: eliminated the ability of PMN media to kill cancer cells in vitro and in vivo; also recorded: protects cancer cells from apoptosis |
| A1AT: alpha-1-anti-trypsin, irreversible non-competitive ELANE inhibitor | – | – | effect of ELANE inhibitor treatment of ELANE or PMN media on cancer cell killing [1]: eliminated the ability of PMN media to kill cancer cells in vitro and in vivo; effect of ELANE inhibitor treatment of ELANE or PMN media on cancer cell killing ([1]; listed as alpha-1-antitrypsin): protects cancer cells from apoptosis |
| B1 | not toxic to cancer cells | had no effect | – |
| B2 | toxic | – | cancer cell death/toxicity on expression in the absence of ELANE (cancer cells; listed as aa. 212-331 of SEQ ID NO:1): induced cancer cell death in the absence of ELANE |
| B3 | – | – | cancer cell killing by murine ELANE [1]: kills cancer cells |
| B4 | not toxic to cancer cells | accelerated ELANE-mediated killing in human cancer cells | effect of overexpression on ELANE-mediated killing ([2]; listed as human CD95 (hCD95)): did not protect against ELANE-mediated killing, but rather accelerated it |
| B5 | – | did not protect against ELANE-mediated killing, but rather accelerated it | – |
| B6 | toxic | – | cancer cell death/toxicity on expression in the absence of ELANE (cancer cells; listed as aa. 221-335 of SEQ ID NO:1): induced cancer cell death in the absence of ELANE |
